The source of these data is US20210123036A1 (UNIVERSITY OF LIVERPOOL, published 2021).

In assay [1] the target is T1, type II collagen gelatin.
T1 construct: Denatured collagen, coated on plates (ELISA-type assay, cell adhesion) or added in solution (NMR); also called type II gelatin; collagen type II gelatin
The experiment in a line: ELISA-type plate binding assay, biotinylated protein on gelatin-coated plate. (An ELISA detects its analyte on a solid surface through an enzyme-linked reagent.)

The target in assay [2] is type I collagen gelatin (skin gelatin). The description is as above.
The target in assay [3] is T1, type II collagen gelatin. The experiment in a line: cell-based or functional assay.
The target in assay [4] is T1, type II collagen gelatin. The experiment in a line: ELISA-type plate binding assay, comparison of Kd. On the procedure:
The chimeric peptides were assessed for binding to collagen type I and type II gelatin using the plate binding assay (described in the materials and methods section). […] A peptide comprising three modules corresponding to module 1 was not tested.

Assay [5] addresses T1, type II collagen gelatin. The experiment in a line: ELISA-type plate binding assay, comparison of Kd (summary of the Examples).
Assay [6] has as its target type I collagen gelatin (skin gelatin). The experiment in a line: ELISA-type plate binding assay, comparison of apparent Kd.

By Kd is commonly meant a measure of binding affinity in units of concentration. A high value points to a looser complex.

Where no end group is shown, it is not given here.

Chain of type I collagen gelatin (skin gelatin) (P02453 162-1217, chain 1 of 2): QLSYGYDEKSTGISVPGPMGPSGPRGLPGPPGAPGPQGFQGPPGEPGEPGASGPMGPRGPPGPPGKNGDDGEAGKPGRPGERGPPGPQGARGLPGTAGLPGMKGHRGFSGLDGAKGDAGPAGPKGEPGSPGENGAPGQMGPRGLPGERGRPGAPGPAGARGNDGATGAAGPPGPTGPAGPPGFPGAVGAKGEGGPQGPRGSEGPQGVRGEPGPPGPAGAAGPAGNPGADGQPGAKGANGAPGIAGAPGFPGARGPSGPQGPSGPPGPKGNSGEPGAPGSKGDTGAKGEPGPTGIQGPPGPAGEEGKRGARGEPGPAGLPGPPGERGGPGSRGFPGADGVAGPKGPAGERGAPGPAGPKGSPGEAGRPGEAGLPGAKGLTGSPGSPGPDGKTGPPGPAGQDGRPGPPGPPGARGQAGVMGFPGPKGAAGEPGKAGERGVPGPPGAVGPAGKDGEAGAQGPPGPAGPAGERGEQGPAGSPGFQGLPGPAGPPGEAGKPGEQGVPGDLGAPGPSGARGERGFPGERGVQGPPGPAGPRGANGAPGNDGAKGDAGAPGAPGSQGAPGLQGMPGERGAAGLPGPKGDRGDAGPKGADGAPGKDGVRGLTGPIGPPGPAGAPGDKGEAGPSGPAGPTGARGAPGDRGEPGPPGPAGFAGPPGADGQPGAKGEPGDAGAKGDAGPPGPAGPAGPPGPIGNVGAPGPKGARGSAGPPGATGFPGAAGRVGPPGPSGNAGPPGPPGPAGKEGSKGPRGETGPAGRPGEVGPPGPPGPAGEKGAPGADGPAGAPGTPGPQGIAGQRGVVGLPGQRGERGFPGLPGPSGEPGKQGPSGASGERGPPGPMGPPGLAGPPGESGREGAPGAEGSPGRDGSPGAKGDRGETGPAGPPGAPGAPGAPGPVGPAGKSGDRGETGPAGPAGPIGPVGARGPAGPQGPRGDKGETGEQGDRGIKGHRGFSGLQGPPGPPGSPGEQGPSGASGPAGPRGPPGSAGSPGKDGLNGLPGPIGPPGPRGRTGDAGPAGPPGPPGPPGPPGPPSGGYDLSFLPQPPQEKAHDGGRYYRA
Chain of type I collagen gelatin (skin gelatin) (P02465 80-1117, chain 2 of 2, further chain): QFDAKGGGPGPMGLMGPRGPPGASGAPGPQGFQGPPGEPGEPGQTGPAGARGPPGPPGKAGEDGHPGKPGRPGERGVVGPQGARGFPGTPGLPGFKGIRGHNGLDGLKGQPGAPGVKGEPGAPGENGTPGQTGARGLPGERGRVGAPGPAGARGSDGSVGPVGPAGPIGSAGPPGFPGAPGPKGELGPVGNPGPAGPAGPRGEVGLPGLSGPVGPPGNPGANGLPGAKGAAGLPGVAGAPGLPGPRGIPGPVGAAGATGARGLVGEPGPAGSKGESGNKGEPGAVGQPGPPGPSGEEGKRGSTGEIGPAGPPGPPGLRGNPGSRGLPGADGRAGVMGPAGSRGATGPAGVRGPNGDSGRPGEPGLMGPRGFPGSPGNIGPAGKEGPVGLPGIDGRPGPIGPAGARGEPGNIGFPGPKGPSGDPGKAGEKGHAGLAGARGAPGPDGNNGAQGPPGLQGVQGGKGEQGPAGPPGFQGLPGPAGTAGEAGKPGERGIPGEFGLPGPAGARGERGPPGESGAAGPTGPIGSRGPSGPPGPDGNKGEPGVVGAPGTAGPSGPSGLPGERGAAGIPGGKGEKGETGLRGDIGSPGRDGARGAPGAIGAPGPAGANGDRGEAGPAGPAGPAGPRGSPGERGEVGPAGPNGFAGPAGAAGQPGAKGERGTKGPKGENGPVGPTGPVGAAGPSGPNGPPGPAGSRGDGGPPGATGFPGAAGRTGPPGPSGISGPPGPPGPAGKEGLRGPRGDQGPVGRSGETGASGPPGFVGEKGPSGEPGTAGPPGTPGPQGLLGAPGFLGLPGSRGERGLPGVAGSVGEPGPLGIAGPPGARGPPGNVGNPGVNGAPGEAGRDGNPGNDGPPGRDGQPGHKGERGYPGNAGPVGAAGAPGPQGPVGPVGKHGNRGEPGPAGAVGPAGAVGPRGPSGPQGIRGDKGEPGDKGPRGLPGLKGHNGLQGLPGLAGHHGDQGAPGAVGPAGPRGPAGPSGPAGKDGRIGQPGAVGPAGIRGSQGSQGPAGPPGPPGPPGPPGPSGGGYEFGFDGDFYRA

B1: peptide 333 comprising three modules corresponding to module 3 of the CBD of MMP-2 (designed binder)
chain: EGQVVSTVYGNSEGAPCVFPFTFLGNKYESCTSAGRSDGFLWCATTANYDDDRKWGFCPHEALFTMGGNSEGAPCVFPFTFLGNKYESCTSAGRSDGKRWCATTANYDDDRKWGFCPETAMSTVGGNSEGAPCVFPFTFLGNKYESCTSAGRSDGKMWCATTANYDDDRKWGFCPDQGYSL
As to B1, the values for the Kd in assay [1] and in assay [2] were 117 nM and 0.0159 nM, respectively.

B2: conjugate comprising MSCs and the peptide 222 (other)
chain: EGQVVFTMYGNAEGQPCKFPFRFQGTSYDSCTTEGRTDGYRWCGTTEDYDRDKKYGFCPHEALFTMGGNAEGQPCKFPFRFQGTSYDSCTTEGRTDGYRWCGTTEDYDRDKKYGFCPETALFTMGGNAEGQPCKFPFRFQGTSYDSCTTEGRTDGYRWCGTTEDYDRDKKYGFCPDQGYSL
modifications: carboxylic residues cationised by covalent coupling of N,N'-dimethyl-1,3-propanediamine (DMPA); corona of glycolic acid ethoxylate 4-nonylphenyl ether surfactant; incorporated into the membrane of mesenchymal stem cells
For B2, in assay [3], the “median % adhesion relative to plastic” value came to 224%.

B3: peptide 222 comprising three modules corresponding to module 2 of the CBD of MMP-2 (designed binder)
chain: EGQVVFTMYGNAEGQPCKFPFRFQGTSYDSCTTEGRTDGYRWCGTTEDYDRDKKYGFCPHEALFTMGGNAEGQPCKFPFRFQGTSYDSCTTEGRTDGYRWCGTTEDYDRDKKYGFCPETALFTMGGNAEGQPCKFPFRFQGTSYDSCTTEGRTDGYRWCGTTEDYDRDKKYGFCPDQGYSL
notes: Expressed in Shuffle cells with a His6-SUMO tag that was cleaved off
Turning to B3, the affinity in assay [1], expressed as Kd, was 1.46 nM. In assay [2], this molecule displayed a Kd of 0.497 nM. Besides, in assay [4], the “fold higher affinity than 333” value came to 10 fold and the “fold higher affinity than the full length CBD” value worked out at 10 fold. In addition, in assay [5], the “fold higher affinity than the naturally occurring CBD of MMP-2” value is roughly 14 fold.

B4: collagen binding domain (CBD) of gelatinase A (MMP-2) (other)
chain: ADGEYCKFPFLFNGKEYNSCTDTGRSDGFLWCSTTYNFEKDGKYGFCPHEALFTMGGNAEGQPCKFPFRFQGTSYDSCTTEGRTDGYRWCGTTEDYDRDKKYGFCPETAMSTVGGNSEGAPCVFPFTFLGNKYESCTSAGRSDGKMWCATTANYDDDRKWGFCPD
notes: Expressed in Shuffle T7 E. coli with a His6-SUMO tag that was cleaved off; also called CBD of MMP-2; Full length CBD
In the case of B4, the dissociation constant (Kd) in assay [1] came to 20.4 nM; in assay [2], 2.58 nM.

B5: module 2 of the CBD of MMP-2 (other)
chain: AEGQPCKFPFRFQGTSYDSCTTEGRTDGYRWCGTTEDYDRDKKYGFCPE
modifications: cysteine pairing not given here; also: biotinylated for plate binding assay
notes: also called M2
For B5, the Kd in assay [1] worked out at 4260 nM; in assay [2] it was 3720 nM.

B6: module 3 of the CBD of MMP-2 (other)
chain: SEGAPCVFPFTFLGNKYESCTSAGRSDGKMWCATTANYDDDRKWGFCPD
modifications: cysteine pairing not given here; also: biotinylated for plate binding assay
notes: also called M3
With B6, the Kd in assay [1] came out at 12000 nM; in assay [2] it was 4090 nM. Moreover, in assay [6], the “fold better binding than to type II gelatin” value amounted to 3 fold.
